Test results published in patent publication US20070232789A1 (UNIVERSITY OF MARYLAND BALTIMORE, published 2007).

Columns and labels:
[1] = biological target: T1, low-density lipoprotein receptor-related protein (LRP), purified (human, UniProt Q07954 20-4544); assay: heterologous displacement of ^125I-fVIII (1 nM) from immobilised LRP; HCh as unlabeled competitor
T1 construct: mature; also called low density lipoprotein receptor-related protein/α2-macroglobulin receptor; LRP receptor
Protocol: (§1) Solid-phase binding assays. […] Microtiter wells were coated with purified LRP or BSA (3 μg/ml) in 50 mM Tris, 0.15 M NaCl, pH 8.0, for 16 h and then blocked with 3% BSA in TBS. […] The radioactivity bound to the wells was counted using a γ-counter (Pharmacia). Affinity constants were derived from homologous and heterologous displacement data using the computer program LIGAND (Munson, P T and Rodbard, D. Anal. Biochem. 107:220-239 (1980)).

[2] = biological target: T1, low-density lipoprotein …; assay: homologous displacement of ^125I-A2 (5 nM) by unlabeled A2 on LRP-coated wells, LIGAND fit
[3] = biological target: LRP on mouse embryonic fibroblasts (MEF cells) (mouse, UniProt Q91ZX7 20-4545); assay: cell-based or functional assay
[4] = biological target: T1, low-density lipoprotein …; assay: heterologous displacement of ^125I-fVIII (1 nM) from immobilised LRP; isolated A2 domain as unlabeled competitor
Protocol: as §1

T1 sequence (Q07954 20-4544, form in doubt): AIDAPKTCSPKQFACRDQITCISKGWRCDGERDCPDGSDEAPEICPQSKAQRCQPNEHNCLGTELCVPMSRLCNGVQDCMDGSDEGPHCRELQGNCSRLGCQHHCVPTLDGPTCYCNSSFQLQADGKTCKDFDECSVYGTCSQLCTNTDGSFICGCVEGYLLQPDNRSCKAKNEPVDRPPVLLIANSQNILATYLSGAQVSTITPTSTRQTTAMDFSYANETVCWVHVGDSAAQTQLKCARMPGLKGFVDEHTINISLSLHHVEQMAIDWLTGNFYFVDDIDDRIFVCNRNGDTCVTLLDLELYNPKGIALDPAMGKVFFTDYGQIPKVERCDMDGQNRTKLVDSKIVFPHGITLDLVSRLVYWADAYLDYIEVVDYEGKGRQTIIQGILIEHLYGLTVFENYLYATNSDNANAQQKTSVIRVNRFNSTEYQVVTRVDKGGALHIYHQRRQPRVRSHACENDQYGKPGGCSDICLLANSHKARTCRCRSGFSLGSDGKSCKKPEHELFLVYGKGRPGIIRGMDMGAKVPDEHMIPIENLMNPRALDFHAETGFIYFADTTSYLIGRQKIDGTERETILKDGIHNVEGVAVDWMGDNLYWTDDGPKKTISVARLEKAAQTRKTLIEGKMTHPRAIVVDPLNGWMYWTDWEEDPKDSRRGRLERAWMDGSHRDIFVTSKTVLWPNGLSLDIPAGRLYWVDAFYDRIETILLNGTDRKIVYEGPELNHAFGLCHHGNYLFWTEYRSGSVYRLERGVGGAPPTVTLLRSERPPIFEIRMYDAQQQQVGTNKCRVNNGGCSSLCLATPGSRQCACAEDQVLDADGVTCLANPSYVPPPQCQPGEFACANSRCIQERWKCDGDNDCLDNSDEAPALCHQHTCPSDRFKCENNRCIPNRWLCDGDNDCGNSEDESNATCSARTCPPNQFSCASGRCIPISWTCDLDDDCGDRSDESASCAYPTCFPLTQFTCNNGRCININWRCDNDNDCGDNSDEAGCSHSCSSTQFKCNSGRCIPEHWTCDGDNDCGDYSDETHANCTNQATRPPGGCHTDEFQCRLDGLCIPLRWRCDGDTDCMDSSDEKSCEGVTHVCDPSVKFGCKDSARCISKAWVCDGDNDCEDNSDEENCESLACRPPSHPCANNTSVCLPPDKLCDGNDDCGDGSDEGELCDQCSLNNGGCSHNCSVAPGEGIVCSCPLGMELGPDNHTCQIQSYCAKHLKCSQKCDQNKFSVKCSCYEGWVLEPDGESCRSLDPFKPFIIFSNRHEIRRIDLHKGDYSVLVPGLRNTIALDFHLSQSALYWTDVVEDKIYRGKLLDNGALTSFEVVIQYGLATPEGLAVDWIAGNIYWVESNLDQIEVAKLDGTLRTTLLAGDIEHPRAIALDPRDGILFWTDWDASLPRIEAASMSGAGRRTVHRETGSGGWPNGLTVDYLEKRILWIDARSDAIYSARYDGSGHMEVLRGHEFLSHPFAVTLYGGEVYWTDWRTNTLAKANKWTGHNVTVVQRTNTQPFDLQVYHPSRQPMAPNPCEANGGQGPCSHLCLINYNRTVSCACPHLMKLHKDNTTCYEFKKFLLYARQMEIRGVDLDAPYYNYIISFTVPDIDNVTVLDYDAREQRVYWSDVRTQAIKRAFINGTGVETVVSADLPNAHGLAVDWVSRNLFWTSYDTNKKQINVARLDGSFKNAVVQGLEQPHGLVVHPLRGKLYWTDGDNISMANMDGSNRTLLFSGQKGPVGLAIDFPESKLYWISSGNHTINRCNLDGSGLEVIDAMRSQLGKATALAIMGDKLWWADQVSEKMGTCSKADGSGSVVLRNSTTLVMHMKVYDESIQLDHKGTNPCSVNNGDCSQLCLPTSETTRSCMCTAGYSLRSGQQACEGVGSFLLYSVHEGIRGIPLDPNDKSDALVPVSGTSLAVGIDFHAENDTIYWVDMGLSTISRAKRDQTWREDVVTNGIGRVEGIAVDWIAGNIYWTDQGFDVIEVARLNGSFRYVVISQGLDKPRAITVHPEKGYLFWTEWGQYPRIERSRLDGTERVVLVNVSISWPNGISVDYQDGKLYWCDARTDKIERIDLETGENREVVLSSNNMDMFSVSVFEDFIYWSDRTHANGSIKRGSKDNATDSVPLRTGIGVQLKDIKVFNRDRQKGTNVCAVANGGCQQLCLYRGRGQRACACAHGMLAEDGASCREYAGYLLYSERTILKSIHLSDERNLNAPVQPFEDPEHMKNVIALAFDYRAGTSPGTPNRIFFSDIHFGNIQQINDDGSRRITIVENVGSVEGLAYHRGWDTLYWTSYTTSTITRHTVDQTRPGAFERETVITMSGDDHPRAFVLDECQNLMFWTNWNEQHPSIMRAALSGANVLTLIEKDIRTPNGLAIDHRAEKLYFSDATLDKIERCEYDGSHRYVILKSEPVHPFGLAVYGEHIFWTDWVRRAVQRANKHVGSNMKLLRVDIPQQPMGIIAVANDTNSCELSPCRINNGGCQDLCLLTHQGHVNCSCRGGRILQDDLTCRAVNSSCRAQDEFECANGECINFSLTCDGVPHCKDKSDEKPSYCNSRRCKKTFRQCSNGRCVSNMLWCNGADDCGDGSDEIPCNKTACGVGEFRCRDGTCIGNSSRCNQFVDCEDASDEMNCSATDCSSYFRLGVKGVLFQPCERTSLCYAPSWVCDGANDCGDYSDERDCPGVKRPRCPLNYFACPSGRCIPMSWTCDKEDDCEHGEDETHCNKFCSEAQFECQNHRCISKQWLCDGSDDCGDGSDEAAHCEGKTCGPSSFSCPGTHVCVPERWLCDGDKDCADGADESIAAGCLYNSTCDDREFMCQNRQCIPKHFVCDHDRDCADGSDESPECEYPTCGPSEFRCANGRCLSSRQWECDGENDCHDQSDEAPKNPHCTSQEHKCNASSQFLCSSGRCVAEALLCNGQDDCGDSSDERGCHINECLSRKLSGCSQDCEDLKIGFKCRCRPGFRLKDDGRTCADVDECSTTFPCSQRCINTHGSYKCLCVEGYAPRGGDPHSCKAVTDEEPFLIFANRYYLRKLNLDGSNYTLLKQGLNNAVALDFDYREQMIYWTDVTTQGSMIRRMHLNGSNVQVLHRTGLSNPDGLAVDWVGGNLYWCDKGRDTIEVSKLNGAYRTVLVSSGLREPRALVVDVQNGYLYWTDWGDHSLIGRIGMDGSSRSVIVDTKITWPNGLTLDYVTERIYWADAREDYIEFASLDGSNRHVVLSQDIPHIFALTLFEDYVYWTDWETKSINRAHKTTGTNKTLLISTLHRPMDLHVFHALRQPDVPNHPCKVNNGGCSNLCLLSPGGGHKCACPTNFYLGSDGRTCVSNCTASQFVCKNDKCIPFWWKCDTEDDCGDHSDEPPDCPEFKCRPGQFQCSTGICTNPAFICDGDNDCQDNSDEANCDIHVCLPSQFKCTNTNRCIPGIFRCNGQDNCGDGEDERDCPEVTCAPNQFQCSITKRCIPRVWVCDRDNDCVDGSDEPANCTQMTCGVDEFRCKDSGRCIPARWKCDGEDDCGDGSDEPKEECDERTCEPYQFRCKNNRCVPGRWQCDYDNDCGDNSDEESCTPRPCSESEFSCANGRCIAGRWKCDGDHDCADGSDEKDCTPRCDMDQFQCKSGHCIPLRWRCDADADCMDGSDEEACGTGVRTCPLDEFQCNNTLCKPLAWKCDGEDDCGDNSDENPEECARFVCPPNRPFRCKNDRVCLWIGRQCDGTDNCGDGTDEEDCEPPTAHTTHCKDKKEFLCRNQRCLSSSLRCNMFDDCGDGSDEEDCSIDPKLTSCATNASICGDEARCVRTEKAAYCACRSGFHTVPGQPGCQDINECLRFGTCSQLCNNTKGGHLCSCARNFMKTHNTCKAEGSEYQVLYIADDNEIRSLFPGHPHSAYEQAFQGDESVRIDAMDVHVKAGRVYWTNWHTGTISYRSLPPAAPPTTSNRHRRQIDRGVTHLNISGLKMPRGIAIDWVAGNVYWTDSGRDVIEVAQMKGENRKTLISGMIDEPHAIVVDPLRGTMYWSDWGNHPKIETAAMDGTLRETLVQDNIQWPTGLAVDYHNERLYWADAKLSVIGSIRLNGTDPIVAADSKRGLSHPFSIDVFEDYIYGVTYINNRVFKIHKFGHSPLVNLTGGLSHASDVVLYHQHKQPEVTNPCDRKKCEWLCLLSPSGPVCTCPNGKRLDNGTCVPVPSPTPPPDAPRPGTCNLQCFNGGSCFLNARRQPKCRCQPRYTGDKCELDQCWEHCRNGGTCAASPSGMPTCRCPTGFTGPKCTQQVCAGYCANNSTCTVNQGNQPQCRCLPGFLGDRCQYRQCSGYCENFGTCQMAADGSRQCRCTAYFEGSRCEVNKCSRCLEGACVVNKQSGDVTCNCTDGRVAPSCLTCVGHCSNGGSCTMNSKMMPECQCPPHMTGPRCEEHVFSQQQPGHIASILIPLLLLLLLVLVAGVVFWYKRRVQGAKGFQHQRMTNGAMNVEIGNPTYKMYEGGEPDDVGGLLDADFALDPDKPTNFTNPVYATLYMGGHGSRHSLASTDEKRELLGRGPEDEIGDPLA

B1: heavy chain of factor VIII (HCh) (other)
chain: ATRRYYLGAVELSWDYMQSDLGELPVDARFPPRVPKSFPFNTSVVYKKTLFVEFTDHLFNIAKPRPPWMGLLGPTIQAEVYDTVVITLKNMASHPVSLHAVGVSYWKASEGAEYDDQTSQREKEDDKVFPGGSHTYVWQVLKENGPMASDPLCLTYSYLSHVDLVKDLNSGLIGALLVCREGSLAKEKTQTLHKFILLFAVFDEGKSWHSETKNSLMQDRDAASARAWPKMHTVNGYVNRSLPGLIGCHRKSVYWHVIGMGTTPEVHSIFLEGHTFLVRNHRQASLEISPITFLTAQTLLMDLGQFLLFCHISSHQHDGMEAYVKVDSCPEEPQLRMKNNEEAEDYDDDLTDSEMDVVRFDDDNSPSFIQIRSVAKKHPKTWVHYIAAEEEDWDYAPLVLAPDDRSYKSQYLNNGPQRIGRKYKKVRFMAYTDETFKTREAIQHESGILGPLLYGEVGDTLLIIFKNQASRPYNIYPHGITDVRPLYSRRLPKGVKHLKDFPILPGEIFKYKWTVTVEDGPTKSDPRCLTRYYSSFVNMERDLASGLIGPLLICYKESVDQRGNQIMSDKRNVILFSVFDENRSWYLTENIQRFLPNPAGVQLEDPEFQASNIMHSINGYVFDSLQLSVCLHEVAYWYILSIGAQTDFLSVFFSGYTFKHKMVYEDTLTLFPFSGETVFMSMENPGLWILGCHNSDFRNRGMTALLKVSSCDKNTGDYYEDSYEDISAYLLSKNNAIEPRSFSQNSRHRSTRQKQFNATTIPENDIEKTDPWFAHRTPMPKIQNVSSSDLLMLLRQSPTPHGLSLSDLQEAKYETFSDDPSPGAIDSNNSLSEMTHFRPQLHHSGDMVFTPESGLQLRLNEKLGTTAATELKKLDFKVSSTSNNLISTIPSDNLAAGTDNTSSLGPPSMPVHYDSQLDTTLFGKKSSPLTESGGPLSLSEENNDSKLLESGLMNSQESSWGKNVSSTESGRLFKGKRAHGPALLTKDNALFKVSISLLKTNKTSNNSATNRKTHIDGPSLLIENSPSVWQNILESDTEFKKVTPLIHDRMLMDKNATALRLNHMSNKTTSSKNMEMVQQKKEGPIPPDAQNPDMSFFKMLFLPESARWIQRTHGKNSLNSGQGPSPKQLVSLGPEKSVEGQNFLSEKNKVVVGKGEFTKDVGLKEMVFPSSRNLFLTNLDNLHENNTHNQEKKIQEEIEKKETLIQENVVLPQIHTVTGTKNFMKNLFLLSTRQNVEGSYDGAYAPVLQDFRSLNDSTNRTKKHTAHFSKKGEEENLEGLGNQTKQIVEKYACTTRISPNTSQQNFVTQRSKRALKQFRLPLEETELEKRIIVDDTSTQWSKNMKHLTPSTLTQIDYNEKEKGAITQSPLSDCLTRSHSIPQANRSPLPIAKVSSFPSIRPIYLTRVLFQDNSSHLPAASYRKKDSGVQESSHFLQGAKKNNLSLAILTLEMTGDQREVGSLGTSATNSVTYKKVENTVLPKPDLPKTSGKVELLPKVHIYQKDLFPTETSNGSPGHLDLVEGSLLQGTEGAIKWNEANRPGKVPFLRVATESSAKTPSKLLDPLAWDNHYGTQIPKEEWKSQEKSPEKTAFKKKDTILSLNACESNHAIAAINEGQNKPEIEVTWAKQGRTERLCSQNPPVLKRHQR
notes: Prepared from plasma-derived fVIII
- Ki [1]: 120 nM

B2: A2 subunit of factor VIII, plasma-derived (from thrombin-activated fVIII) (other)
chain: SVAKKHPKTWVHYIAAEEEDWDYAPLVLAPDDRSYKSQYLNNGPQRIGRKYKKVRFMAYTDETFKTREAIQHESGILGPLLYGEVGDTLLIIFKNQASRPYNIYPHGITDVRPLYSRRLPKGVKHLKDFPILPGEIFKYKWTVTVEDGPTKSDPRCLTRYYSSFVNMERDLASGLIGPLLICYKESVDQRGNQIMSDKRNVILFSVFDENRSWYLTENIQRFLPNPAGVQLEDPEFQASNIMHSINGYVFDSLQLSVCLHEVAYWYILSIGAQTDFLSVFFSGYTFKHKMVYEDTLTLFPFSGETVFMSMENPGLWILGCHNSDFRNRGMTALLKVSSCDKNTGDYYEDSYEDISAYLLSKNNAIEPR
notes: Radio-iodinated where used as tracer; also called A2 domain; plasma-derived A2
- Kd [2]: 130 nM
- inhibition of degradation of ^125I-fVIII/vWf complex by MEF cells by a 1000-fold excess of A2 [3]: > 60%
- inhibition of internalization of ^125I-fVIII/vWf complex by MEF cells by a 1000-fold excess of A2 [3]: > 70%
- Ki [4]: 132 nM
